B1: LINE1-mini (parent)
chain: GGCAGAGCUCAACACAGCGUGGCAAAGUGGCUGUGGCUAGACUGCC

Variants of: B1
Assay: self-cleavage, relative activity (ratio to wild type); higher = more cleavage; in vitro, sequencing; the parent is a self-cleaving ribozyme

| Variant | self-cleavage |
| --- | --- |
| GGCAGAGCUCAACACAGCGUGGCAAAGUGGUUGUGGCUAGCCUGCC [C31U A41C] | 0.06 |
| GGCAGAGCUCAACACAGCGUGGCAAAGUGGUUGUGGCUAGUCUGCC [C31U A41U] | 0.16 |
| GGCAGAGCUCAACACAGCGUGGCAAAGUGGUUGUGGCUAGGCUGCC [C31U A41G] | 0.04 |
| GGCAGAGCUCAACACAGCGUGGCAAAGUGGAAGUGGCUAGACUGCC [C31A U32A] | 0.05 |
| GGCAGAGCUCAACACAGCGUGGCAAAGUGGACGUGGCUAGACUGCC [C31A U32C] | 0.07 |
| GGCAGAGCUCAACACAGCGUGGCAAAGUGGAGGUGGCUAGACUGCC [C31A U32G] | 0.05 |
| GGCAGAGCUCAACACAGCGUGGCAAAGUGGGUGUGACUAGACUGCC [C31G G36A] | 0.1 |
| GGCAGAGCUCAACACAGCGUGGCAAAGUGGGUGUGUCUAGACUGCC [C31G G36U] | 0.05 |
| GGCAGAGCUCAACACAGCGUGGCAAAGUGGGUGUGCCUAGACUGCC [C31G G36C] | 0.04 |
| GGCAGAGCUCAACACAGCGUGGCAAAGUGGAUGUGGCUAAACUGCC [C31A G40A] | 0.04 |
| GGCAGAGCUCAACACAGCGUGGCAAAGUGGAUGUGGCUAUACUGCC [C31A G40U] | 0.05 |
| GGCAGAGCUCAACACAGCGUGGCAAAGUGGAUGUGGCUACACUGCC [C31A G40C] | 0.04 |
| GGCAGAGCUCAACACAGCGUGGCAAAGUGGGUGUGGCUCGACUGCC [C31G A39C] | 0.12 |
| GGCAGAGCUCAACACAGCGUGGCAAAGUGGGUGUGGCUUGACUGCC [C31G A39U] | 0.06 |
| GGCAGAGCUCAACACAGCGUGGCAAAGUGGGUGUGGCUGGACUGCC [C31G A39G] | 0.03 |
| GGCAGAGCUCAACACAGCGUGGCAAAGUGGGUGUGGCGAGACUGCC [C31G U38G] | 0.03 |
| GGCAGAGCUCAACACAGCGUGGCAAAGUGGGUGUGGCCAGACUGCC [C31G U38C] | 0.07 |
| GGCAGAGCUCAACACAGCGUGGCAAAGUGGGUGUGGCAAGACUGCC [C31G U38A] | 0.09 |
| GGCAGAGCUCAACACAGCGUGGCAAAGUGGGUGUAGCUAGACUGCC [C31G G35A] | 0.04 |

| Variant | self-cleavage |
| --- | --- |
| GGCAGAGCUCAACACAGCGUGGCAAAGUGGGUGUUGCUAGACUGCC [C31G G35U] | 0.03 |
| GGCAGAGCUCAACACAGCGUGGCAAAGUGGGUGUCGCUAGACUGCC [C31G G35C] | 0.05 |
| GGCAGAGCUCAACACAGCGUGGCAAAGUGGUUGUAGCUAGACUGCC [C31U G35A] | 0.03 |
| GGCAGAGCUCAACACAGCGUGGCAAAGUGGUUGUUGCUAGACUGCC [C31U G35U] | 0.07 |
| GGCAGAGCUCAACACAGCGUGGCAAAGUGGUUGUCGCUAGACUGCC [C31U G35C] | 0.04 |
| GGCAGAGCUCAACACAGCGUGGCAAAGUGGUUGUGGCUACACUGCC [C31U G40C] | 0.03 |
| GGCAGAGCUCAACACAGCGUGGCAAAGUGGUUGUGGCUAAACUGCC [C31U G40A] | 0.04 |
| GGCAGAGCUCAACACAGCGUGGCAAAGUGGUUGUGGCUUGACUGCC [C31U A39U] | 0.13 |
| GGCAGAGCUCAACACAGCGUGGCAAAGUGGUUGUGGCUGGACUGCC [C31U A39G] | 0.05 |
| GGCAGAGCUCAACACAGCGUGGCAAAGUGGUUGUGGCUCGACUGCC [C31U A39C] | 0.12 |
| GGCAGAGCUCAACACAGCGUGGCAAAGUGGGUGUGGCUAGAUUGCC [C31G C42U] | 0.09 |
| GGCAGAGCUCAACACAGCGUGGCAAAGUGGGUGUGGCUAGAAUGCC [C31G C42A] | 0.05 |
| GGCAGAGCUCAACACAGCGUGGCAAAGUGGGUGUGGCUAGAGUGCC [C31G C42G] | 0.06 |
| GGCAGAGCUCAACACAGCGUGGCAAAGUGGUUUUGGCUAGACUGCC [C31U G33U] | 0.06 |
| GGCAGAGCUCAACACAGCGUGGCAAAGUGGUUAUGGCUAGACUGCC [C31U G33A] | 0.09 |
| GGCAGAGCUCAACACAGCGUGGCAAAGUGGUUCUGGCUAGACUGCC [C31U G33C] | 0.15 |
| GGCAGAGCUCAACACAGCGUGGCAAAGUGGUUGUGGCUAGACUGCU [C31U C46U] | 0.23 |
| GGCAGAGCUCAACACAGCGUGGCAAAGUGGUUGUGGCUAGACUGCA [C31U C46A] | 0.15 |
| GGCAGAGCUCAACACAGCGUGGCAAAGUGGUUGUGGCUAGACUGCG [C31U C46G] | 0.08 |

| Variant | self-cleavage |
| --- | --- |
| GGCAGAGCUCAACACAGCGUGGCAAAGUGGUUGUGACUAGACUGCC [C31U G36A] | 0.12 |
| GGCAGAGCUCAACACAGCGUGGCAAAGUGGUUGUGCCUAGACUGCC [C31U G36C] | 0.07 |
| GGCAGAGCUCAACACAGCGUGGCAAAGUGGUUGUGUCUAGACUGCC [C31U G36U] | 0.06 |
| GGCAGAGCUCAACACAGCGUGGCAAAGUGGAUCUGGCUAGACUGCC [C31A G33C] | 0.1 |
| GGCAGAGCUCAACACAGCGUGGCAAAGUGGAUAUGGCUAGACUGCC [C31A G33A] | 0.06 |
| GGCAGAGCUCAACACAGCGUGGCAAAGUGGAUUUGGCUAGACUGCC [C31A G33U] | 0.08 |
| GGCAGAGCUCAACACAGCGUGGCAAAGUGGAUGUGUCUAGACUGCC [C31A G36U] | 0.12 |
| GGCAGAGCUCAACACAGCGUGGCAAAGUGGAUGUGCCUAGACUGCC [C31A G36C] | 0.13 |
| GGCAGAGCUCAACACAGCGUGGCAAAGUGGAUGUGACUAGACUGCC [C31A G36A] | 0.11 |
| GGCAGAGCUCAACACAGCGUGGCAAAGUGGGUGAGGCUAGACUGCC [C31G U34A] | 0.03 |
| GGCAGAGCUCAACACAGCGUGGCAAAGUGGGUGGGGCUAGACUGCC [C31G U34G] | 0.04 |
| GGCAGAGCUCAACACAGCGUGGCAAAGUGGGUGCGGCUAGACUGCC [C31G U34C] | 0.14 |
| GGCAGAGCUCAACACAGCGUGGCAAAGUGGGUGUGGCUAGGCUGCC [C31G A41G] | 0.03 |
| GGCAGAGCUCAACACAGCGUGGCAAAGUGGGUGUGGCUAGCCUGCC [C31G A41C] | 0.05 |
| GGCAGAGCUCAACACAGCGUGGCAAAGUGGGUGUGGCUAGUCUGCC [C31G A41U] | 0.09 |
| GGCAGAGCUCAACACAGCGUGGCAAAGUGGAUGCGGCUAGACUGCC [C31A U34C] | 0.06 |
| GGCAGAGCUCAACACAGCGUGGCAAAGUGGAUGAGGCUAGACUGCC [C31A U34A] | 0.05 |
| GGCAGAGCUCAACACAGCGUGGCAAAGUGGAUGGGGCUAGACUGCC [C31A U34G] | 0.02 |

From the RNAGym collection of RNA variant scans (doi:10.7554/elife.90254)
